Measured values as given in US20210101998A1 (Pfizer, published 2021).
Read-outs that look alike come from different tables or passages of the source.

T1: murTFPI K1K2 (mouse)
T1 construct: also called Mouse TFPI K1K2; mouse TFPI
T1 chain: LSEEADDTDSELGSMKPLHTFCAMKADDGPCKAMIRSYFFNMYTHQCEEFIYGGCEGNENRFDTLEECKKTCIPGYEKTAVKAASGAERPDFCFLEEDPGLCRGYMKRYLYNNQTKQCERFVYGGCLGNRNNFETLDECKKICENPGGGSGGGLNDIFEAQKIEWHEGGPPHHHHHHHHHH

T2: rabTFPI K1K2 (rabbit, limits assumed)
T2 construct: also called Rabbit TFPI K1K2; rabbit TFPI
T2 chain: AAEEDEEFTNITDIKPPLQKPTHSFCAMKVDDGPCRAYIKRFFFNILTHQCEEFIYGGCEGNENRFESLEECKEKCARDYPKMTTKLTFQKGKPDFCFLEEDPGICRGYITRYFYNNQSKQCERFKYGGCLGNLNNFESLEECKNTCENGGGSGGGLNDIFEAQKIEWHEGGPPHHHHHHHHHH

B1: TFPI-3 (antibody, human IgG1, kappa, V domains shown)
VH: not shown
VL: AIQLTQSPSSLSASVGDRVTITCRASQGISSSLAWYQQKPGKAPKLLIYAASTLQSGVPSRFSGSGSGTDFTLTISSLQPEDFATYYCQQLDSYPLSFGQGTKLEIKR
notes: Human IgG1-3M from phage display; also called mAb-TFPI-3
B2: TFPI-26 (antibody, human IgG1, lambda, V domains shown)
VH: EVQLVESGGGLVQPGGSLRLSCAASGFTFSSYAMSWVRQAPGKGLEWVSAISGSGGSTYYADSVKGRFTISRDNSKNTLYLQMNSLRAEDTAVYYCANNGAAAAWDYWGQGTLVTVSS
VL: QSVLTQPPSLSGAPGQRVTISCTGSSSNLGADYDVQWYQQLPGTAPKLLIFGNNNRPSGVPDRFSGSRSGTSASLAITGLQAEDEANYYCQSYDRSLSGSMVFGGGTKLTVLG
notes: Human IgG1-3M from phage display; also called mAb-TFPI-26
B3: 7A4.D9 (antibody, mouse IgG1, kappa, V domains shown)
VH: EVQLQQSGPELVKPGASVKMSCKASGYTFTSYVMHWVKQKPGQGLEWIGYLNPYNDGTKYNEKFKGKASLISDKSSSTVYMELSSLTSEDSAVYYCATTLLYAMDYWGQGSSVTVSS
VL: DIVLTQSPASLAVSLGQRATISCRASKSVSTSGYTYMHWYQQKPGQPPKLLIYLASNLESGVPARFSGSGSGTDFTLNIHPVEEEDAAAYYCQHIRELPFTFGSGTKLEIKA
notes: Mouse hybridoma antibody; also called mouse 7A4.D9
B4: 6B7.c5 (antibody, mouse IgG1, kappa, V domains shown)
VH: EVLLQQSGPELVKPGSSVKIPCKASGYTFTDYTMDWVKQSHGKSLEWIGDINPSNGGSIYNRKFKGKATLTVDKSSSTAYMELRSLTSEDTAVYYCARMHYNYDGFPYWGQGTLVTVSA
VL: DIVMTQSHKFMSTSVGDRVSITCKASQDVITAVAWYQQKPGQSPKLLIYWASTRHTGVPVRFTGSGSGTDYTLTIISVQAEDLALYYCQQHYSTPYTFGGGTKLEIKA
notes: Mouse hybridoma antibody; also called mouse 6b7.c5
B5: 4D8-Vk1.0 × VH1.0 (antibody, human IgG1, kappa, V domains shown)
VH: EVQLVESGGGLVQPGGSLRLSCAASGYTFTDYNLDWVRQAPGKGLEWVADINPINGATLYNQKFKGRFTISRDNAKNSLYLQMNSLRAEDTAVYYCARYYGDYDAMDYWGQGTLVTVSS
VL: DIQMTQSPSSLSASVGDRVTITCKASQDVHTAVAWYQQKPGKAPKLLIYWASTRHTGVPSRFSGSGSGTDFTLTISSLQPEDFATYYCQQHYTTPYTFGQGTKLEIKR
notes: Humanized 4D8 variant
B6: 4D8-Vk1.1 × VH1.0 (antibody, human IgG1, kappa, V domains shown)
VH: EVQLVESGGGLVQPGGSLRLSCAASGYTFTDYNLDWVRQAPGKGLEWVADINPINGATLYNQKFKGRFTISRDNAKNSLYLQMNSLRAEDTAVYYCARYYGDYDAMDYWGQGTLVTVSS
VL: DIQMTQSPSSLSASVGDRVTITCKASQDVHTAVAWYQQKPGKAPKLLIYWASTRHTGVPSRFSGSGSGTDYTLTISSLQPEDFATYYCQQHYTTPYTFGQGTKLEIKR
notes: Humanized 4D8 variant
B7: 4D8-Vk1.0 × VH1.2 (antibody, human IgG1, kappa, V domains shown)
VH: EVQLVESGGGLVQPGGSLRLSCAASGYTFTDYNLDWVRQAPGKGLEWVGDINPINGATLYNQKFKGRFTISRDNAKNSLYLQMNSLRAEDTAVYYCARYYGDYDAMDYWGQGTLVTVSS
VL: DIQMTQSPSSLSASVGDRVTITCKASQDVHTAVAWYQQKPGKAPKLLIYWASTRHTGVPSRFSGSGSGTDFTLTISSLQPEDFATYYCQQHYTTPYTFGQGTKLEIKR
notes: Humanized 4D8 variant
B8: 4D8-Vk1.0 × VH1.4 (antibody, human IgG1, kappa, V domains shown)
VH: EVQLVESGGGLVQPGGSLRLSCAASGYTFTDYNLDWVRQAPGKGLEWVADINPINGATLYNQKFKGRFTISRDQAKNSLYLQMNSLRAEDTAVYYCARYYGDYDAMDYWGQGTLVTVSS
VL: DIQMTQSPSSLSASVGDRVTITCKASQDVHTAVAWYQQKPGKAPKLLIYWASTRHTGVPSRFSGSGSGTDFTLTISSLQPEDFATYYCQQHYTTPYTFGQGTKLEIKR
notes: Humanized 4D8 variant
B9: 4D8-Vk1.0 × VH1.3 (antibody, human IgG1, kappa, V domains shown)
VH: EVQLVESGGGLVQPGGSLRLSCAASGYTFTDYNLDWVRQAPGKGLEWVADINPINGATLYNQKFKGRATISRDNAKNSLYLQMNSLRAEDTAVYYCARYYGDYDAMDYWGQGTLVTVSS
VL: DIQMTQSPSSLSASVGDRVTITCKASQDVHTAVAWYQQKPGKAPKLLIYWASTRHTGVPSRFSGSGSGTDFTLTISSLQPEDFATYYCQQHYTTPYTFGQGTKLEIKR
notes: Humanized 4D8 variant
B10: 4D8-Vk1.0 × VH1.1 (antibody, human IgG1, kappa, V domains shown)
VH: EVQLVESGGGLVQPGGSLRLSCAASGYTFTDYNLDWVRQAPGKGLEWVGDINPINGATLYNQKFKGRATISVDQAKNSAYLQMNSLRAEDTAVYYCARYYGDYDAMDYWGQGTLVTVSS
VL: DIQMTQSPSSLSASVGDRVTITCKASQDVHTAVAWYQQKPGKAPKLLIYWASTRHTGVPSRFSGSGSGTDFTLTISSLQPEDFATYYCQQHYTTPYTFGQGTKLEIKR
notes: Humanized 4D8 variant
B11: 4D8-Vk1.1 × VH1.3 (antibody, human IgG1, kappa, V domains shown)
VH: EVQLVESGGGLVQPGGSLRLSCAASGYTFTDYNLDWVRQAPGKGLEWVADINPINGATLYNQKFKGRATISRDNAKNSLYLQMNSLRAEDTAVYYCARYYGDYDAMDYWGQGTLVTVSS
VL: DIQMTQSPSSLSASVGDRVTITCKASQDVHTAVAWYQQKPGKAPKLLIYWASTRHTGVPSRFSGSGSGTDYTLTISSLQPEDFATYYCQQHYTTPYTFGQGTKLEIKR
notes: Humanized 4D8 variant
B12: 4D8-Vk1.1 × VH1.2 (antibody, human IgG1, kappa, V domains shown)
VH: EVQLVESGGGLVQPGGSLRLSCAASGYTFTDYNLDWVRQAPGKGLEWVGDINPINGATLYNQKFKGRFTISRDNAKNSLYLQMNSLRAEDTAVYYCARYYGDYDAMDYWGQGTLVTVSS
VL: DIQMTQSPSSLSASVGDRVTITCKASQDVHTAVAWYQQKPGKAPKLLIYWASTRHTGVPSRFSGSGSGTDYTLTISSLQPEDFATYYCQQHYTTPYTFGQGTKLEIKR
notes: Humanized 4D8 variant
B13: 4D8-Vk1.1 × VH1.1 (antibody, human IgG1, kappa, V domains shown)
VH: EVQLVESGGGLVQPGGSLRLSCAASGYTFTDYNLDWVRQAPGKGLEWVGDINPINGATLYNQKFKGRATISVDQAKNSAYLQMNSLRAEDTAVYYCARYYGDYDAMDYWGQGTLVTVSS
VL: DIQMTQSPSSLSASVGDRVTITCKASQDVHTAVAWYQQKPGKAPKLLIYWASTRHTGVPSRFSGSGSGTDYTLTISSLQPEDFATYYCQQHYTTPYTFGQGTKLEIKR
notes: Humanized 4D8 variant

Key:
[1] = target: humTFPI K1K2 (human); assay: cell-based or functional assay
[2] = target: T3, humTFPI K1K2 (human); assay: SPR, antibody ligand, TFPI analyte
T3 construct: Biotinylated on the AviTag for ELISA; also called Human TFPIα K1K2; humTFPI K1K2-aviHis10

[3] = target: T1, murTFPI K1K2; assay: SPR, antibody ligand, TFPI analyte
[4] = target: T3, humTFPI K1K2; assay: ELISA, biotinylated TFPI on streptavidin plate
Procedure: (§1) Purified anti-TFPI antibodies were diluted to 1 ug/ml in ELISA assay buffer, then serially diluted three-fold to generate an eight-point dilution series. The diluted antibodies were added at a volume of 100 uL per well. The plates were incubated at room temperature for 2 hours. After washing the plates with PBS/0.05% Tween 20, the plates were incubated with a goat anti-mouse IgG-Fc polyclonal antibody conjugated with horseradish peroxidase (Pierce) at 1:10,000 dilution. After 1 hour of incubation, bound antibody was detected with the addition of a TMB substrate solution. Absorbances were read a 450 nm, and the data were analyzed by GraphPad Prism software.

[5] = target: T2, rabTFPI K1K2; assay: ELISA, biotinylated TFPI on streptavidin plate
Procedure: as §1

[6] = target: T3, humTFPI K1K2; assay: SPR, antibody ligand, TFPI analyte; remark: listed apart in the source
[7] = target: T2, rabTFPI K1K2; assay: SPR, antibody ligand, TFPI analyte
[8] = target: T3, humTFPI K1K2; assay: cell-based or functional assay; remark: listed apart in the source
[9] = target: T3, humTFPI K1K2; assay: ELISA, biotinylated TFPI on streptavidin plate; remark: listed apart in the source
[10] = target: T2, rabTFPI K1K2; assay: ELISA, biotinylated TFPI on streptavidin plate
[11] = target: T3, humTFPI K1K2; assay: SPR, antibody ligand, TFPI analyte; remark: listed apart in the source
Procedure: The flow cells were activated by injecting a 1:1 mixture of 400 mM 1-Ethyl-3-(3-dimethylaminopropyl) carbodiimide hydrochloride (EDC) and N-hydroxysuccinimide (NHS) for 7 minutes at a flow rate of 10 μl/minute. Anti-human IgG antibody was diluted to 25 μg/ml in 10 mM Sodium Acetate pH 5.0 and injected over all flow cells for 7 minutes at 10 ul/minute. All flow cells were blocked with 1 M Ethanolamine-HCL (ETH) for 7 minutes at 10 μl/minute. Final immobilization level of the capture antibody was approximately 10,000 resonance units (RU). The running buffer for immobilization and kinetics was 10 mM HEPES pH 7.4, 150 mM NaCl, 3 mM EDTA, 0.05% (v/v) Tween-20 (HBS-EP+). […] Flow cell 1 was used as a reference surface. […] At the end of each cycle, the entire anti-IgG surface was regenerated by a 60 second pulse of 3 M MgCl2. Kinetic assays were conducted at 25° C. at a collection rate of 10 Hz on a BIAcore T200 instrument (GE Healthcare). Rate constants and affinities were determined by fitting the data to a 1:1 model in BIAcore T200 Evaluation software version 1.0 (GE).

| Binder | EC50 [9] [nM] | EC50 [10] [nM] | Kd [11] [nM] | koff [11] [s⁻¹] | kon [11] [M⁻¹ s⁻¹] | further results |
| --- | --- | --- | --- | --- | --- | --- |
| B1 |  |  |  |  |  | FXa EC50 [1]: 208 nM; FXa-FVIIa EC50 [1]: 37.4 nM; Kd [2]: 27.1 nM; koff [2]: 0.0017 s⁻¹; kon [2]: 62500 M⁻¹ s⁻¹; Kd [3]: 3.81 nM; koff [3]: 0.000824 s⁻¹; kon [3]: 215000 M⁻¹ s⁻¹ |
| B2 |  |  |  |  |  | FXa EC50 [1]: 12.8 nM; FXa-FVIIa EC50 [1]: 9.6 nM; Kd [2]: 5.79 nM; koff [2]: 0.00118 s⁻¹; kon [2]: 205000 M⁻¹ s⁻¹; Kd [3]: 3.68 nM; koff [3]: 0.00476 s⁻¹; kon [3]: 1.29e+06 M⁻¹ s⁻¹ |
| B3 |  |  |  |  |  | EC50 [4]: 0.0887 nM; EC50 [5]: 0.0887 nM; Kd [6]: 6.22 nM; koff [6]: 0.00921 s⁻¹; kon [6]: 1.48e+06 M⁻¹ s⁻¹; Kd [7]: 3.55 nM; koff [7]: 0.0188 s⁻¹; kon [7]: 5.3e+06 M⁻¹ s⁻¹; FXa EC50 [8]: 22.3 nM; FXa-FVIIa EC50 [8]: 9.35 nM |
| B4 |  |  |  |  |  | EC50 [4]: 0.121 nM; EC50 [5]: 0.129 nM; Kd [6]: 6.58 nM; koff [6]: 0.00363 s⁻¹; kon [6]: 552000 M⁻¹ s⁻¹; Kd [7]: 4.95 nM; koff [7]: 0.00564 s⁻¹; kon [7]: 1.14e+06 M⁻¹ s⁻¹; FXa EC50 [8]: 13.9 nM; FXa-FVIIa EC50 [8]: 12.1 nM |
| B5 | 0.0772 | 0.0785 | 6.94 | 0.00047 | 67700 |  |
| B6 | 0.0429 | 0.0451 |  |  |  |  |
| B7 | 0.0758 | 0.0422 | 0.695 | 0.000165 | 238000 |  |
| B8 | 0.056 | 0.0426 | 11.1 | 0.000835 | 75500 |  |
| B9 | 0.0822 | 0.0556 | 7.19 | 0.000571 | 79500 |  |
| B10 | 0.0884 | 0.0705 | 25.4 | 0.00154 | 60600 |  |
| B11 | 0.0651 | 0.0511 | 0.823 | 0.000131 | 159000 |  |
| B12 | 0.059 | 0.0783 | 0.627 | 9.49e-05 | 151000 |  |
| B13 | 0.0818 | 0.0788 | 0.832 | 0.000161 | 193000 |  |
